Experimental data as given in patent US20200115702A1.

Molecular target: BAFF-Fc (Sino Biological) (human) (UniProt Q9Y275)
Assay: cell-based or functional assay

IC50, inhibition of BAFF bioactivity in the mouse splenocyte assay: 121 nM
Substance: endogenous BAFF receptor, BR3 (from UniProt Q96RJ3 1-78)
